pEC50: −log10 of the molar value.
How the values were obtained:
[1] = molecular target: Nanoluc_DDB1 (N-terminal Nanoluc luciferase, G4S linker, DDB1 (FL)) (UniProt Q16531); experiment: NanoBRET in HEK293T cells, 10 µM compound Example 3-1; class B = 3-4 fold increase
[2] = molecular target: Nanoluc_DDB1 (N-terminal Nanoluc luciferase, G4S linker, DDB1 (FL)) (UniProt Q16531); experiment: NanoBRET in HEK293T cells, 10 µM compound Example 3-7; class B = 3-4 fold increase
[3] = molecular target: Nanoluc_DDB1 (N-terminal Nanoluc luciferase, G4S linker, DDB1 (FL)) (UniProt Q16531); experiment: NanoBRET in HEK293T cells, 10 µM compound Example 3-10; class C = 2-3 fold increase
[4] = molecular target: Nanoluc_DDB1 (N-terminal Nanoluc luciferase, G4S linker, DDB1 (FL)) (UniProt Q16531); experiment: NanoBRET in HEK293T cells, 10 µM compound Example 3-16; class C = 2-3 fold increase
[5] = molecular target: Nanoluc_DDB1 (N-terminal Nanoluc luciferase, G4S linker, DDB1 (FL)) (UniProt Q16531); experiment: NanoBRET in HEK293T cells, 10 µM compound Example 3-20; class C = 2-3 fold increase
[6] = molecular target: Nanoluc_DDB1 (N-terminal Nanoluc luciferase, G4S linker, DDB1 (FL)) (UniProt Q16531); experiment: NanoBRET in HEK293T cells, 10 µM compound Example 3-25; class B = 3-4 fold increase
[7] = molecular target: Nanoluc_DDB1 (N-terminal Nanoluc luciferase, G4S linker, DDB1 (FL)) (UniProt Q16531); experiment: NanoBRET in HEK293T cells, 10 µM compound Example 3-31; class C = 2-3 fold increase
[8] = molecular target: Nanoluc_DDB1 (N-terminal Nanoluc luciferase, G4S linker, DDB1 (FL)) (UniProt Q16531); experiment: NanoBRET in HEK293T cells, 10 µM compound Example 3-38; class B = 3-4 fold increase
[9] = molecular target: Nanoluc_DDB1 (N-terminal Nanoluc luciferase, G4S linker, DDB1 (FL)) (UniProt Q16531); experiment: NanoBRET in HEK293T cells, 10 µM compound Example 3-39; class B = 3-4 fold increase
[10] = molecular target: Nanoluc_DDB1 (N-terminal Nanoluc luciferase, G4S linker, DDB1 (FL)) (UniProt Q16531); experiment: NanoBRET in HEK293T cells, 10 µM compound Example 3-46; class B = 3-4 fold increase
[11] = molecular target: Nanoluc_DDB1 (N-terminal Nanoluc luciferase, G4S linker, DDB1 (FL)) (UniProt Q16531); experiment: NanoBRET in HEK293T cells, 10 µM compound Example 3-51; class B = 3-4 fold increase
[12] = molecular target: Nanoluc_DDB1 (N-terminal Nanoluc luciferase, G4S linker, DDB1 (FL)) (UniProt Q16531); experiment: NanoBRET in HEK293T cells, 10 µM compound Example 3-55; class B = 3-4 fold increase
[13] = molecular target: Nanoluc_DDB1 (N-terminal Nanoluc luciferase, G4S linker, DDB1 (FL)) (UniProt Q16531); experiment: NanoBRET in HEK293T cells, 10 µM compound Example 3-65; class B = 3-4 fold increase
[14] = molecular target: Nanoluc_DDB1 (N-terminal Nanoluc luciferase, G4S linker, DDB1 (FL)) (UniProt Q16531); experiment: NanoBRET in HEK293T cells, 10-point titration of compound Example 3-53; class E = >10 µM
[15] = molecular target: Nanoluc_DDB1 (N-terminal Nanoluc luciferase, G4S linker, DDB1 (FL)) (UniProt Q16531); experiment: NanoBRET in HEK293T cells, 10-point titration of compound Example 3-59; class E = >10 µM
[16] = molecular target: Nanoluc_DDB1 (N-terminal Nanoluc luciferase, G4S linker, DDB1 (FL)) (UniProt Q16531); experiment: NanoBRET in HEK293T cells, 10 µM compound Example 3-11; class A = greater than 4-fold increase
[17] = molecular target: Nanoluc_DDB1 (N-terminal Nanoluc luciferase, G4S linker, DDB1 (FL)) (UniProt Q16531); experiment: NanoBRET in HEK293T cells, 10 µM compound Example 3-19; class A = greater than 4-fold increase
[18] = molecular target: Nanoluc_DDB1 (N-terminal Nanoluc luciferase, G4S linker, DDB1 (FL)) (UniProt Q16531); experiment: NanoBRET in HEK293T cells, 10 µM compound Example 3-35; class A = greater than 4-fold increase
[19] = molecular target: Nanoluc_DDB1 (N-terminal Nanoluc luciferase, G4S linker, DDB1 (FL)) (UniProt Q16531); experiment: NanoBRET in HEK293T cells, 10 µM compound Example 3-42; class A = greater than 4-fold increase
[20] = molecular target: Nanoluc_DDB1 (N-terminal Nanoluc luciferase, G4S linker, DDB1 (FL)) (UniProt Q16531); experiment: NanoBRET in HEK293T cells, 10 µM compound Example 3-43; class A = greater than 4-fold increase
[21] = molecular target: Nanoluc_DDB1 (N-terminal Nanoluc luciferase, G4S linker, DDB1 (FL)) (UniProt Q16531); experiment: NanoBRET in HEK293T cells, 10 µM compound Example 3-45; class A = greater than 4-fold increase
[22] = molecular target: Nanoluc_DDB1 (N-terminal Nanoluc luciferase, G4S linker, DDB1 (FL)) (UniProt Q16531); experiment: NanoBRET in HEK293T cells, 10 µM compound Example 3-52; class A = greater than 4-fold increase
[23] = molecular target: Nanoluc_DDB1 (N-terminal Nanoluc luciferase, G4S linker, DDB1 (FL)) (UniProt Q16531); experiment: NanoBRET in HEK293T cells, 10 µM compound Example 3-62; class A = greater than 4-fold increase
[24] = molecular target: Nanoluc_DDB1 (N-terminal Nanoluc luciferase, G4S linker, DDB1 (FL)) (UniProt Q16531); experiment: NanoBRET in HEK293T cells, 10 µM compound Example 3-66; class A = greater than 4-fold increase
[25] = molecular target: Nanoluc_DDB1 (N-terminal Nanoluc luciferase, G4S linker, DDB1 (FL)) (UniProt Q16531); experiment: NanoBRET in HEK293T cells, 10-point titration of compound Example 3-44; class A = EC50<=0.25 µM
[26] = molecular target: Nanoluc_DDB1 (N-terminal Nanoluc luciferase, G4S linker, DDB1 (FL)) (UniProt Q16531); experiment: NanoBRET in HEK293T cells, 10-point titration of compound Example 3-62; class A = EC50<=0.25 µM

Nanoluc_DDB1 (N-terminal Nanoluc luciferase, G4S linker, DDB1 (FL)), sequence (Q16531 other isoform, or with tags, fused parts or gaps): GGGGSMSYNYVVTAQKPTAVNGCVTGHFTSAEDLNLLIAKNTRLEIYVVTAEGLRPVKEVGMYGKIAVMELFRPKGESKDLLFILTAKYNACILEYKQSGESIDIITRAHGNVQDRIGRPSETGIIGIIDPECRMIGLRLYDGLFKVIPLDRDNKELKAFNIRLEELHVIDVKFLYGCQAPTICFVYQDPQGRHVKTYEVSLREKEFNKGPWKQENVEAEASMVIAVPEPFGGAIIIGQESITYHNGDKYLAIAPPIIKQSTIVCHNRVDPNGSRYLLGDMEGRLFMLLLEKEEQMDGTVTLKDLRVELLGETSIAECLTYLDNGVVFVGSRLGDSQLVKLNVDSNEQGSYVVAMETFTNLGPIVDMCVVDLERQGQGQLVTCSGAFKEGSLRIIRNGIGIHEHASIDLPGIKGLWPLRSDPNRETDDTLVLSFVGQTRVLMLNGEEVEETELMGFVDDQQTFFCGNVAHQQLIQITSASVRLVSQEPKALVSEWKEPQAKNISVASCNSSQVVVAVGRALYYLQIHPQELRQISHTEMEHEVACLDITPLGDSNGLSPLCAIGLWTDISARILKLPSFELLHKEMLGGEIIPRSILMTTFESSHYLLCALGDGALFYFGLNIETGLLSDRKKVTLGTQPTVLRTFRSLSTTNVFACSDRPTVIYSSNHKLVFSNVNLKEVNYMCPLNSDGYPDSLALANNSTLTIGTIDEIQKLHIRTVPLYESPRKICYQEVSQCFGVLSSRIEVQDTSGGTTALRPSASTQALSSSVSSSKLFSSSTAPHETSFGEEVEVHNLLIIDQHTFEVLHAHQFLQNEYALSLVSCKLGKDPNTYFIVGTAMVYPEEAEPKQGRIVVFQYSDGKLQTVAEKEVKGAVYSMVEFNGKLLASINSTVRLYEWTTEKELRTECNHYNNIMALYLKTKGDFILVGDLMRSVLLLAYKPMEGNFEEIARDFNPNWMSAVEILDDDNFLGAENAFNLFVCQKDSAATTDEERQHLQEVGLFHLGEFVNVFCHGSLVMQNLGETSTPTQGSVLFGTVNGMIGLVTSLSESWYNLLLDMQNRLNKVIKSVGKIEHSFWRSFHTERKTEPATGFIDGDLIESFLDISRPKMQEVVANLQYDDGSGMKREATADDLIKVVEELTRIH

Q: For “HaloTag_CDK12 (N-terminal HaloTag, G4S linker, CDK12 (713-1052)) (from UniProt Q9NYV4 713-1052) (enzyme)”, which NanoBRET fold increase [1] is on record?
A: 3 to 4 fold

Q: And the NanoBRET fold increase [2]?
A: 3 to 4 fold

Q: And the NanoBRET fold increase [3]?
A: 2 to 3 fold

Q: And the NanoBRET fold increase [4]?
A: 2 to 3 fold

Q: What about the NanoBRET fold increase [5] of the same substance?
A: 2 to 3 fold

Q: What about the NanoBRET fold increase [6] of the same substance?
A: 3 to 4 fold

Q: What about the NanoBRET fold increase [7] of the same substance?
A: 2 to 3 fold

Q: And the NanoBRET fold increase [8]?
A: 3 to 4 fold

Q: What about the NanoBRET fold increase [9] of the same substance?
A: 3 to 4 fold

Q: And the NanoBRET fold increase [10]?
A: 3 to 4 fold

Q: What about the NanoBRET fold increase [11] of the same substance?
A: 3 to 4 fold

Q: What about the NanoBRET fold increase [12] of the same substance?
A: 3 to 4 fold

Q: What about the NanoBRET fold increase [13] of the same substance?
A: 3 to 4 fold

Q: And the pEC50 [14]?
A: < 5.00

Q: What about the pEC50 [15] of the same substance?
A: < 5.00

Q: What about the NanoBRET fold increase [16] of the same substance?
A: > 4 fold

Q: What about the NanoBRET fold increase [17] of the same substance?
A: > 4 fold

Q: What about the NanoBRET fold increase [18] of the same substance?
A: > 4 fold

Q: What about the NanoBRET fold increase [19] of the same substance?
A: > 4 fold

Q: What about the NanoBRET fold increase [20] of the same substance?
A: > 4 fold

Q: And the NanoBRET fold increase [21]?
A: > 4 fold

Q: And the NanoBRET fold increase [22]?
A: > 4 fold

Q: And the NanoBRET fold increase [23]?
A: > 4 fold

Q: What about the NanoBRET fold increase [24] of the same substance?
A: > 4 fold

Q: And the pEC50 [25]?
A: > 6.60

Q: What about the pEC50 [26] of the same substance?
A: > 6.60

Reference: patent US20240132485A1, “HETEROCYCLIC CULLIN RING UBIQUITIN LIGASE COMPOUNDS AND USES THEREOF” (CEMM - FORSCHUNGSZENTRUM FÜR MOLEKULARE MEDIZIN GMBH, priority 2020, published 2024)
